# Experiment: soluble on expression in E. coli; label from the status in PepcDB or PDB records
row,Sequence,soluble on expression in E. coli
1,MDREHLIKLACARNPDLEMCEQLKARNVRDSNSGKLEMIEPPPLPPSMKAAKRRDIHAAHDENSEQKPVRYRALSAEEVRILQTKCARVGPLVQKHCQPKKTSARNAGRCAAYFRDCAQFIEKGDPLGAIANSFDSGVNINLANVDVKGIPYYPLNEEGAVGVGVGLGIPFGAWGGGASTSVGVRDYFHGDQEVGANWYDGKYGYKNHWNIPLVQSLGVEGGQHNTVSFPLHGKDAGNLKVDNGYGVGGYYQQNDHVGVNYKEGDVRHTFGVSSPFVGAGFQTGQAVAFPGLDVWERALG,not soluble
2,MDRFDAMRAFARVVETGSFTKAADTLHMSKTSVTQLVQQLEARLRVRLLNRTTRKVNATADGAAYYERVRQLLADLEDAETSLSGASATPGGRLRVDVPSPFASTILVPALPAFQARYPDILLHLGVSDREVDLIDENVDCVIRGGQIGNLSLAARHVGDLQLGVYASPGYLARAGVPAHPRELQDAQHRIIGFSWSRARRLFPCAMRRRADERIEVAGRHALLLDEGNAYLAAGLAAMGVIGVPTYMAEAHVERGALIRLFGDWRLDPMPLYIAYPQNRHVSAKLRVFIDWIVELMARHAPVTDAPPPHRSARMPGGPAAIPTDITGA,not soluble
3,MDRIVEIEKYSFDETYETSLRPSNFDGYIGQESIKKNLNVFIAAAKKRNECLDHILFSGPAGLGKTTLANIISYEMSANIKTTAAPMIEKSGDLAAILTNLSEGDILFIDEIHRLSPAIEEVLYPAMEDYRLDIIIGSGPAAQTIKIDLPKFTLIGATTRAGMLSNPLRDRFGMQFRLEFYKDSELALILQKAALKLNKTCEEKAALEIAKRSRSTPRIALRLLKRVRDFADVNDEEIITEKRANEALNSLGVNELGFDAMDLRYLELLTAAKQKPIGLASIAAALSEDENTIEDVIEPYLLANGYIERTAKGRIASAKSYSALKLNYEKTLFEE,not soluble
4,MDRKGFLKSTMIATGSLLLGGAGICRFLNDKEPADGPFPRTIEKIHCGNMKKVLVIMSAGTKLGNTDRLTDAYIKGLVERGHSVTKVYLGSMRIEGCRGCGVCQRLAHQCAVRDGMQDIYPLFAECDTVVMASPLYFWTITSQLKAFIDRLYAISADDKYPQKDTVLLMTAGDDNENTFDQPKQYFRLLSQALGWNEVGIYCAGGCTGCEKLARQIDKVHLENVYKMGLEL,not soluble
5,MDRTRIVRRWRRNMDVADDAEYVEMLATLSEGSVRRNFNPYTDIDWESPEFAVTDNDPRWILPATDPLGRHPWYQAQSRERQIEIGMWRQANVAKVGLHFESILIRGLMNYTFWMPNGSPEYRYCLHESVEECNHTMMFQEMVNRVGADVPGLPRRLRWVSPLVPLVAGPLPVAFFIGVLAGEEPIDHTQKNVLREGKSLHPIMERVMSIHVAEEARHISFAHEYLRKRLPRLTRMQRFWISLYFPLTMRSLCNAIVVPPKAFWEEFDIPREVKKELFFGSPESRKWLCDMFADARMLAHDTGLMNPIARLVWRLCKIDGKPSRYRSEPQRQHLAAAPAA,not soluble
6,MDSDLYDEFGNYIGPELDSDDDAGDIDDNGDDEDRSDVDEDDEPDRMEEDDAEEIPQNQVVLHEDKKYYATALEVYGEGVETLVQEEDAQPLTEPIVKPVSKKKFQAAERFLPETVYKKEYLADLMDCPHIMRNVAIAGHLHHGKTTFLDCLMEQTHPEFYRAEDADARFTDILFIEKQRGCSIKSQPVSIVAQDSRSKSYLLNIIDTPGHVNFSDEMTASYRLADGVVVMVDAHEGVMMNTERAIRHAIQERLAVTLCISKIDRLLLELKLPPADAYFKLRLIIDQVNNILSTFAEEDVPVLSPLNGNVIFSSGRYNVCFSLLSFSNIYAKQHGDSFNSKEFARRLWGDIYFEKKTRKFVKKSPSHDAPRTFVQFILEPMYKIFSQVVGDVDTCLPDVMAELGIRLSKEEQKMNVRPLIALICKRFFGDFSAFVDLVVQNIKSPLENAKTKIEQTYLGPADSQLAQEMQKCNAEGPLMVHTTKNYPVDDATQFHVFGRVMSGTLEANTDVRVLGENYSIQDEEDCRRMTVGRLFVRVASYQIEVSRVPAGCWVLIEGIDQPIVKTATIAELGYEEDVYIFRPLKFNTRSCVKLAVEPINPSELPKMLDGLRKVNKSYPLLTTRVEESGEHVLLGTGEFYMDCVMHDMRKVFSEIDIKVADPVVTFNETVIETSTLKCFAETPNKKNKITMMAEPLEKQLDEDIENEVVQIGWNRRRLGEFFQTKYNWDLLAARSIWAFGPDTTGPNILLDDTLPSEVDKHLLSTVRESLVQGFQWATREGPLCEEPIRQVKFKLLDAAIATEPLYRGGGQMIPTARRCAYSAFLMATPRLMEPYYTVEVVAPADCVAAVYTVLAKRRGHVTTDAPMPGSPMYTISAYIPVMDSFGFETDLRIHTQGQAFCMSAFHHWQLVPGDPLDKSIVIKTLDVQPTPHLAREFMIKTRRRKGLSEDVSVNKFFDDPMLLELAKQQDYTGF,soluble
7,MDSKEVLVHVKNLEKNKSNDAAVLEILHVLDKEFVPTEKLLRETKVGVEVNKFKKSTNVEISKLVKKMISSWKDAINKNKRSRQAQQHHQDHAPGNAEDKTTVGESVNGVQ,soluble
8,MDSSQVPNPVLVLVGSPRRDGNSALLAQAVAEGARQSGAAATLLFLDDYIAGFLTDEKEADARRPDDRYGELFFDHFLPARAVVLCTPVYWYGMSAQAKAFFDRSFTYYSASHPRHAEVLRRMTGKRLALAVSSEETYPGAALGIVHQLQEFTRYTHSQFVGMVHGAGNRRGEVAHDPRRPLQAAHRLGHDLLSLPYSDYRIDSPRDHQVWPGAPA,not soluble
9,MDTEKLMKAGEIAKKVREKAIKLARPGMLLLELAESIEKMIMELGGKPAFPVNLSINEIAAHYTPYKGDTTVLKEGDYLKIDVGVHIDGFIADTAVTVRVGMEEDELMEAAKEALNAAISVARAGVEIKELGKAIENEIRKRGFKPIVNLSGHKIERYKLHAGISIPNIYRPHDNYVLKEGDVFAIEPFATIGAGQVIEVPPTLIYMYVRDVPVRVAQARFLLAKIKREYGTLPFAYRWLQNDMPEGQLKLALKTLEKAGAIYGYPVLKEIRNGIVAQFEHTIIVEKDSVIVTQDMINKST,soluble
10,MDTKHPPDPSGPSDPNINLGEFEDPVDGYADDDLLTPDDLSVSVTGMTPSRSFLETEEFETELGGVEPFEDLFNDISAHEIIQVIADGDRVGRPIVVVYAYRLPSSKEIDHARLLQYLVQIIDKIVDQDYTIVYFHYGLRSHNKPPVRWLFQAYKQLDRRFKKNLKALYVVHPTRFIRIIFSLFKGFISSKFENKFHYVMCIDELENALSVARLNLPSPIRDHDKSFSTQSNRPETPPAQPLPTQQFGVPLEFILSHCGGNIPPIVDQLIEYLEAHALTMEGVFRKSANIGSIKRLQDRINKGEKIDFENDPEYKDNEYVASLHASVLLKTFFRSLGEPLTTNRLYPKLAALSEVSKTEKSAAVKEFVKLLPRENYILLKTVIKFLTRVAENSKVNLMTANNLSVVFGPNLTWPTDQEVPISQLNNLNNFCYKLIVDYDSVFDH,not soluble
11,MDTPNKDDSIIRFSVSLQQNLLDELDNRIIKNGYSSRSELVRDMIREKLVEDNWAEDNPNDESKIAVLVVIYDGGQRELNQRMIDIQHASGTHVLCTTHIHMDEHNCLETIILQGNSFEIQRLQLEIGGLRGVKFAKLTKASSFEYNE,soluble
12,MDTQQLINAITPEAYQRLLYAVETGKWPEGTPLSQQQRDSCMQAVMLYQSKHNTQADHMSVGVGGEVVFKSKAELKKRFSEGEEDILRVNPNQEA,not soluble
13,MDTRDGNEKTRDAILDAAVMHVPFDGWSETTLRAAIRDSGVAPGLARALFPRGGVDLALAYHRRGDERMLEKAAAADLGALRYSERVAALIRFRLEAVEDKELVRRGSTLFSLPQHAGDGARALWGTADRIWTALGDSSRDLNWYTKRATLSAVYAATVLYWLGDDTPGHYATWEFLDRRIADVLRFEKMKTEAQRNPLLRAVTAGPRMVMRRVHAPAPPADVPGRSSRFLEHHHHHH,soluble
14,MDTTKTIAALFDFDGVIMDTETQYTVFWDEQGRKYLNEEDFGRRIKGQTLTQIYEKYFSDLPEAQQEITAGLNIYEKSMSYEYIPGVEAFIADLRKHGAKIAVVTSSNEEKMQNVYNAHPEFKGMVDRILTGEMFARSKPAPDCFLLGMEIFGATPENSYVFEDSFHGLQAGMTSGATVIGLATTNTREAITGKAHYIIDDFSEMTFEHLLALHR,not soluble
15,MDVENEQILNVNPADPDNLSDSLFSGDEENAGTEEVKNEINGNWISAYSINEARINAKAKRRLRKNSSRDSGRGDSVSDSGSDALRSGLTVPTSPKGRLLDRRSRSGKGRGLPKKGGAGGKGVWGTPGQVYDVEEVDVKDPNYDDDQENCVYETVVLPLDERAFEKTLTPIIQEYFEHGDTNEVAEMLRDLNLGEMKSGVPVLAVSLALEGKASHREMTSKLLSDLCGTVMSTTDVEKSFDKLLKDLPELALDTPRAPQLVGQFIARAVGDGILCNTYIDSYKGTVDCVQARAALDKATVLLSMSKGGKRKDSVWGSGGGQQSVNHLVKEIDMLLKEYLLSGDISEAEHCLKELEVPHFHHELVYEAIIMVLESTGESTFKMILDLLKSLWKSSTITVDQMKRGYERIYNEIPDINLDVPHSYSVLERFVEECFQAGIISKQLRDLCPSRGRKRFVSEGDGGRLKPESY,soluble
16,MDVIPLSLGLETMGGLVEKVIPRNTTIPVARAQDFTTFKDGQTAMSIHVMQGERELVQDCRSLARFALRGIPALPAGGAHIRVTFQVDADGLLSVTAMEKSTGVEASIQVKPSYGLTDSEIASMIKDSMSYAEQDVKARMLAEQKVEAARVLESLHGALAADAALLSAAERQVIDDAAAHLSEVAQGDDVDAIEQAIKNVDKQTQDFAARRMDQSVRRALKGHSVDE,soluble
17,MDVLNAANDLLPLLPEVQDALSEDFDGVECSMGAGVVLEQAPFRMAFPHMGRQVTFVPDTSCLEEFDGAKLHRINLGPKSAVFTDGEPGCCMELILGAGKDWKTPLVKLFSRVYPNKWAFFITELESGQATYHILSSSHGMLSSARREDTPDSTEQSSMVSSPTASVSDATNYSLWIVPVTKVFAIPAPKKVKVVRKVIKKRTPVDGSTNGTNGTSVVNGNGTMNGHVSPEDGERKVRLVKKKPPTEKLESSTEREISPLNDLPKPEFSTIASSESMKTVINGKSEREEAGPSNDSSDGGSASELRKKLTEKIMEQKFMVNGEQRALNGNASSRGLGRSISRSSMTPDRRLDPILEDGSKQRQAIASAISVNRPSITRNSATPPMTPHSKLALEMLFKLDKLWKYFKFIYSKCRYTFIQFFNSTFSNTKIYSVEIMDAEVIKVLVSHPSKPNIPVMVLQLVLTKCLNYEHLGRLREVHPHWDEIAGQLLNSGYYKLLERSDKLLMTLQRKVVSDPGLHYATSVLTNIQMHILNPVDIMRAVLDEGVCCFPYGVILDKTFILLDKVEAMLHGSYEEDVHWEPVAKLAKKAASHYRGNLERVMEERMGENLRLKAAQRIIRLESFVVDAQVAKLEKESNKAKEDVRWEIDQLHQKNSQLRKDNREMKANQMRLEARVEALEQKFKTLARLLS,not soluble
18,MDVQQRLGGLLEITESRICLHCLGRHFVDLVEGPGNRLRGEKLQKKFSLKLSGPCMICGDVFDRIDEAAGMVKEKVDELGLEYSSVLVGTRLPPKMVELDDEIRKRLGIQTEGLKRDLNRELGKRVVKLLGCSAEFEDPDLVVMVDFRGDIRVWIQINPLFLEGRYRKLVRGIPQTRWPCRKCRGRGCERCNYTGKMYPTSVEELIAGPILEASQGRDARFHGSGREDVDVRMLGTGRPFVLEIREPRVRNLDPESLEEEVNRRAQGMVEVEGLRFSTRKRKVELKDSSQSRYKVYRALVELDGDVTDEDLERLGSLDIIKQRTPVRVSHRRADRVRERRVLEISWNLLDGCLELIIKGEGGLYIKELISGDSGRTEPSVSSVLGVPARCVALDVLEVGDEPSEKDLEHHHHHH,soluble
19,MDYFNIFAYGELMKDEILFELINRVPEKNLGKIYNFEKFFDEKIGYYGIKPKENSSISGIILFNINSTELEIFDDYEDEGTYYSKNKTICYDLNGKGYESYVYVRLELEHHHHHH,not soluble
